Source: patent US20240002504A1 (AKESO BIOPHARMA, published 2024)
Values belong to the binder of their own block, whether it stands above or below them.

Experiments:
human TIGIT-mFc [1] = target: T1, human TIGIT-mFc (human, UniProt Q495A1 22-141, limits assumed); assay: indirect ELISA screening with human TIGIT-mFc as antigen
T1 construct: the whole entry NP_776160.2 is named; also called antigen TIGIT-mFc; not shown: Fc protein fragment of a mouse IgG (mFc)
T1 sequence (looked up): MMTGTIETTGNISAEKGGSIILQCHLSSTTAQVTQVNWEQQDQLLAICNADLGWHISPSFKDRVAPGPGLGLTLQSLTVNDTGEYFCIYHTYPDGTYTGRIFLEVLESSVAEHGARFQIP

[2] = target: T2, 293T-TIGIT cell membrane surface antigen TIGIT (human, UniProt Q495A1 22-244); assay: FACS on 293T-TIGIT cells
T2 construct: whole, on cells; also called cell membrane surface TIGIT
T2 sequence (looked up): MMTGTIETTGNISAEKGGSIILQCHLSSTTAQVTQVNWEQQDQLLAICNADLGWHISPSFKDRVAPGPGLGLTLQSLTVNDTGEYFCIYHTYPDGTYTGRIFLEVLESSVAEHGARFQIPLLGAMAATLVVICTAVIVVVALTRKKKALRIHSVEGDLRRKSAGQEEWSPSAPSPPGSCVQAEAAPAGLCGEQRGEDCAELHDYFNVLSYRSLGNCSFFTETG
Experimental: The cells were diluted, 300 thousand cells were added to each well of a transparent V-bottomed 96-well plate, and 200 μL of 1% PBSA was added to each tube. The mixtures were centrifuged for 5 min, and the supernatants were discarded. […] The mixtures were centrifuged for 5 min, and the supernatants were discarded. The plate was washed twice. […] 200 μL of PBSA was added to each tube. The mixtures were centrifuged for 5 min, and the supernatants were discarded. The cells were resuspended by adding 200 μL of PBSA, and the suspensions were transferred into flow cytometry tubes to measure the mean fluorescence intensity of the cells at each concentration by a flow cytometer.

human TIGIT-mFc [3] = target: T1, human TIGIT-mFc; assay: ELISA, TIGIT-mFc captured on goat anti-mouse IgG Fc
Experimental: (§1) Experimental steps: a microplate was coated with goat anti-mouse IgG Fc at 2 μg/mL, and incubated at 4° C. for 16 h. After incubation, the microplate coated with goat anti-mouse IgG Fc was washed once with PBST, and then blocked with a PBST solution containing 1% BSA as a microplate blocking solution for 2 h. After blocking, the microplate was washed 3 times with PBST. Then, 1 μg/mL antigen human TIGIT-mFc was added, and the plate was incubated at 37° C. for 30 min and then washed 3 times with PBST. The antibodies serially diluted with the PBST solution were added to the wells of the microplate. The microplate containing the test antibodies was incubated at 37° C. for 30 min, and then washed 3 times with PBST. After washing, HRP-labeled goat anti-human IgG Fc secondary antibody working solution diluted in a ratio of 1:5000 was added, and the microplate was incubated at 37° C. for 30 min. After incubation, the plate was washed 4 times with PBST, TMB (Neogen, 308177) was added for chromogenesis in the dark for 4 min, and then a stop solution was added to terminate the chromogenic reaction. The microplate was put into a microplate reader immediately, and the OD value of each well in the microplate was read at 450 nm. The data were analyzed and processed by SoftMax Pro 6.2.1.

human TIGIT-mFc [4] = target: T1, human TIGIT-mFc; assay: as above; remark: listed apart in the source
Experimental: as §1

[5] = target: T2, 293T-TIGIT cell membrane surface …; assay: FACS competition vs CD155 (10 nM) on 293T-TIGIT cells
Experimental: (§2) The cells were diluted, 300 thousand cells were added to each well of a transparent V-bottomed 96-well plate, and 200 μL of 1% PBSA was added to each tube. The mixtures were centrifuged for 5 min, and the supernatants were discarded. […] The plate was incubated on ice for 30 min. […] 200 μL of 1% PBSA was then added to each tube. The mixtures were centrifuged for 5 […], and the supernatants were discarded. The plate was washed twice. APC goat anti-mouse IgG (minimal x-reactivity) antibody (diluted 300-fold with PBSA) was added to each sample, and the mixtures were incubated on ice in the dark for 40 min. 200 μL of PBSA was added to each tube. The mixtures were centrifuged for 5 min, and the supernatants were discarded. The cells were resuspended by adding 200 μL of PBSA, and the suspensions were transferred into flow cytometry tubes to measure the mean fluorescence intensity of the cells at each concentration by a flow cytometer.

[6] = target: T2, 293T-TIGIT cell membrane surface …; assay: FACS competition vs CD112 (30 nM) on 293T-TIGIT cells
Experimental: as §2

human TIGIT-mFc [7] = target: T1, human TIGIT-mFc; assay: competition ELISA vs CD155-hFc-Biotin (1 ug/mL), coated TIGIT-mFc
Experimental: (§3) Experimental steps: a microplate was coated with TIGIT-mFc at 2 μg/mL, and incubated at 4° C. overnight. After incubation, the antigen-coated microplate was rinsed once with PBST, and then blocked with a PBST solution containing 1% BSA as a microplate blocking solution for 2 h. After blocking, the microplate was washed 3 times with PBST. The antibodies serially diluted with the PBST solution was added to the microplate. […] The microplate was incubated at 37° C. for 30 min, and then washed 3 times with PBST. After washing, SA-HRP working solution diluted in a ratio of 1:4000 was added, and the microplate was incubated at 37° C. for 30 min. After incubation, the plate was washed 4 times with PBST, TMB (Neogen, 308177) was added for chromogenesis in the dark for 5 min, and then a stop solution was added to terminate the chromogenic reaction. The microplate was put into a microplate reader immediately, and the OD value of each well in the microplate was read at 450 nm. The data were analyzed and processed by SoftMax Pro 6.2.1.

human TIGIT-mFc [8] = target: T1, human TIGIT-mFc; assay: as above; remark: listed apart in the source
Experimental: as §3

human TIGIT-mFc [9] = target: T1, human TIGIT-mFc; assay: BLI (Fortebio), TIGIT-mFc on AMC sensor, Ab 0.06-5 nM, 37 C, 1:1 fit
Experimental: The sample dilution buffer was PBS (0.02% Tween-20, 0.1% BSA, pH 7.4). TIGIT-mFc was immobilized on an AMC sensor at a concentration of 3 μg/mL for 50 s, and the sensor was equilibrated in the buffer for 60 s. The TIGIT-mFc immobilized on the sensor was allowed to bind to antibody at concentrations of 0.06-5 nM (three-fold dilutions) for 120 s, and the protein was dissociated in the buffer for 300 s. The sensor was regenerated with 10 mM glycine solution (pH=1.7). The detection temperature was 37° C., the detection frequency was 0.3 Hz, and the sample plate shaking rate was 1000 rpm. The data were analyzed by 1:1 model fitting to obtain affinity constants.

binding result (human TIGIT-mFc [1]): binds
B1: 26B12 (antibody, V domains shown)
VH: EVQLQESGPGLVKPSQSLSLTCTVTGHSFTSDYAWNWIRQFPGNRLEWMGYISYSDSTNYNPSLKSRISITRDTSKNQFFLQMNSVTTEDTATYYCARLDYGNYGGAMDYWGQGTSVTVSS
VL: DIVLTQSHEFMSTSLRDRVSITCKSSQHVSTAVAWYQQKPGQSPKLLIYSASYRYTGVPDRFTGSGSGTDFTFTISSVKAEDLAVYYCQQHYITPWTFGGGTKLEIK
notes: Murine hybridoma antibody; also called monoclonal antibody secreted by hybridoma cell line LT019

EC50 [2]: 1.26 nM
EC50 (human TIGIT-mFc [3]): 0.036 nM
EC50 (human TIGIT-mFc [4]): 0.039 nM
EC50 [5]: 1.21 nM
EC50 [6]: 1.22 nM
EC50 (human TIGIT-mFc [7]): 0.254 nM
EC50 (human TIGIT-mFc [8]): 0.236 nM
Kd (human TIGIT-mFc [9]): 0.0316 nM
Maximum signal height of analyte (human TIGIT-mFc [9]): 0.16 nm
S E (kdis) (human TIGIT-mFc [9]): 3.46e-05 s⁻¹
S E (kon) (human TIGIT-mFc [9]): 184000 M⁻¹ s⁻¹
koff (human TIGIT-mFc [9]): 0.000144 s⁻¹
kon (human TIGIT-mFc [9]): 4.56e+06 M⁻¹ s⁻¹
B2: RG6058 (antibody, V domains shown)
VH: EVQLQQSGPGLVKPSQTLSLTCAISGDSVSSNSAAWNWIRQSPSRGLEWLGKTYYRFKWYSDYAVSVKGRITINPDTSKNQFSLQLNSVTPEDTAVFYCTRESTTYDLLAGPFDYWGQGTLVTVSS
VL: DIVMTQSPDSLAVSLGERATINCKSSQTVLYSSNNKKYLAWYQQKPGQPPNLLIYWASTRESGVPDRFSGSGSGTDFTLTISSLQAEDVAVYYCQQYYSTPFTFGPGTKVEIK
